Values quoted from earlier work as cited in article PMC8131754.

Molecular target: SRC-2 coactivator peptide (Homo sapiens) (UniProt Q15596)
Sequence of UniProt Q15596 (Q15596 2-1464): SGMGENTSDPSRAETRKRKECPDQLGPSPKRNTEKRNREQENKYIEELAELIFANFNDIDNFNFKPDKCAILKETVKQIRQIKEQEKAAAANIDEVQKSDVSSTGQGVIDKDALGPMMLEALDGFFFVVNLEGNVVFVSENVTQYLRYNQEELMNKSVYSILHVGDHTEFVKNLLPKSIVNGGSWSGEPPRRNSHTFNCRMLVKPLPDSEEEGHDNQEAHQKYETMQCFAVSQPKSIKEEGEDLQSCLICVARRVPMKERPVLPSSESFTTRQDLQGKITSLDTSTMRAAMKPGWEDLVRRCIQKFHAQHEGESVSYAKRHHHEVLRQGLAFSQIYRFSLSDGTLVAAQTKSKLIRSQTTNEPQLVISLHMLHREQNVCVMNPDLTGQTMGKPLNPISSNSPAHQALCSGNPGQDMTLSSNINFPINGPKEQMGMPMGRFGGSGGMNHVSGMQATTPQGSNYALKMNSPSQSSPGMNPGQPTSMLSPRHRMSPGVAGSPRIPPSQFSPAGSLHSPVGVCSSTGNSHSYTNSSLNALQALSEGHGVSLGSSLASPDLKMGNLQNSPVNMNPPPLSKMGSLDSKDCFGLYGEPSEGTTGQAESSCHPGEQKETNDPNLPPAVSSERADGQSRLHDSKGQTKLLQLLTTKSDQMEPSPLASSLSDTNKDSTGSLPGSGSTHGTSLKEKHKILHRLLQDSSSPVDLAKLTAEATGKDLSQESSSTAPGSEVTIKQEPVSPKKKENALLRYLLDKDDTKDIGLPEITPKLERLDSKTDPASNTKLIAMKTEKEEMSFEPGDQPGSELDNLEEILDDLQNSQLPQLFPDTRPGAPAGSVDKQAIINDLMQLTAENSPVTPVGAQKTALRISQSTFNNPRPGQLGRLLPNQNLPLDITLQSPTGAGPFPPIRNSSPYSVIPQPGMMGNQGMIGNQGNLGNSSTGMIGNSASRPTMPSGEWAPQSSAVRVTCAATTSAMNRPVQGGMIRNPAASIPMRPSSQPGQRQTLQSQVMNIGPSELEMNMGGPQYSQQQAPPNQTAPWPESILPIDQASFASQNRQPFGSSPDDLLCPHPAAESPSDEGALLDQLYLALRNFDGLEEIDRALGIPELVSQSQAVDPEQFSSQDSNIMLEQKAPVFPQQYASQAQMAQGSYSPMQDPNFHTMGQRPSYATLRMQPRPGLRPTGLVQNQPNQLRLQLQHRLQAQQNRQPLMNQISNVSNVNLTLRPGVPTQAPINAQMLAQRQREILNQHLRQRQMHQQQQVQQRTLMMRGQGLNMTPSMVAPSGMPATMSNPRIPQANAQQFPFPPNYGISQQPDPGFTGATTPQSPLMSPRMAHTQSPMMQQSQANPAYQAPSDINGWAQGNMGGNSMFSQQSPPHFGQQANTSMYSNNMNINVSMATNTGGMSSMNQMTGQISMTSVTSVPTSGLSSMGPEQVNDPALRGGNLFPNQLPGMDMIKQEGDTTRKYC

Kd: 175 nM
Substance: Estrogen receptor α LBD (from UniProt P03372)
